This series concerns the molecule itself. As to the kind of experiment: cryo-EM structure; complex of HDAC1, MIDEAS ELM2-SANT and DNTTIP1 lacking the DNA-binding domain; 50 µM SAHA and 50 µM InsP6, glutaraldehyde cross-linked on ice; dimer map ~4 Å (C2) and tetramer map 4.5 Å (D2) from the same grids.

This note sets out measurements from publication PMC7319964, “The MiDAC histone deacetylase complex is essential for embryonic development and has a unique multivalent structure” (Nature Communications, 2020).

B1: ELM2-SANT domain from MIDEAS (domain or fragment, UniProt Q6PJG2 717-887, looked up)
chain: VSIEPRINVGSRFQAEIPLMRDRALAAADPHKADLVWQPWEDLESSREKQRQVEDLLTAACSSIFPGAGTNQELALHCLHESRGDILETLNKLLLKKPLRPHNHPLATYHYTGSDQWKMAERKLFNKGIAIYKKDFFLVQKLIQTKTVAQCVEFYYTYKKQVKIGRNGTLT
notes: MIDEAS (ELMSAN1, c14orf43) ELM2-SANT domain; The tag is followed by a TEV protease cleavage site; TEV released the complex from the anti-FLAG resin; also called MIDEAS co-repressor protein; not shown: 10xHis, N-terminal, cleaved; 3xFLAG, N-terminal, cleaved
In the case of B1, the binding result was “binds”.
